Patent publication US20100221257A1

Target: Antibody 6 (Eu3+ cryptate labelled, Example 5)
Experiment: HTRF competition: unlabelled test protein (maximum 100 nM) against biotin labelled human IL-1R1/Fc binding to cryptate labelled antibody

Antibody 6 (Eu3+ cryptate labelled, Example 5), sequence (VH, as listed by the source, chain 1 of 2): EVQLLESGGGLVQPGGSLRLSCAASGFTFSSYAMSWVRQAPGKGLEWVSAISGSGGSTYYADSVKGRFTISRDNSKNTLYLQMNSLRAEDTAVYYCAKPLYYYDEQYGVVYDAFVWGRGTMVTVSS
Antibody 6 (Eu3+ cryptate labelled, Example 5), sequence (VL, as listed by the source, chain 2 of 2): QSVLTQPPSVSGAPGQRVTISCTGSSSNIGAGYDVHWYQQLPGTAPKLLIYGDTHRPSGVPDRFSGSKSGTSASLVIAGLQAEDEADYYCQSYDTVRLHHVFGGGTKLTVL

B1: MoIL-1R1 (mouse IL-1R1 extracellular domain Fc fusion) (Fc fusion, UniProt P13504 20-338, looked up, not shown: a dimerising Fc or GST)
chain: LEIDVCTEYPNQIVLFLSVNEIDIRKCPLTPNKMHGDTIIWYKNDSKTPISADRDSRIHQQNEHLWFVPAKVEDSGYYYCIVRNSTYCLKTKVTVTVLENDPGLCYSTQATFPQRLHIAGDGSLVCPYVSYFKDENNELPEVQWYKNCKPLLLDNVSFFGVKDKLLVRNVAEEHRGDYICRMSYTFRGKQYPVTRVIQFITIDENKRDRPVILSPRNETIEADPGSMIQLICNVTGQFSDLVYWKWNGSEIEWNDPFLAEDYQFVEHPSTKRKYTLITTLNISEVKSQFYRYPFICVVKNTNIFESAHVQLIYPVPDFK
percentage inhibition at the highest concentration of chimera: 66%
